{"source": "patent US20180193452A1", "biological_target": "wild type CAR (WT CAR): human FcεRIα extracellular domain fused to CD3ζ (human)", "sequence (chain, as listed by the source)": "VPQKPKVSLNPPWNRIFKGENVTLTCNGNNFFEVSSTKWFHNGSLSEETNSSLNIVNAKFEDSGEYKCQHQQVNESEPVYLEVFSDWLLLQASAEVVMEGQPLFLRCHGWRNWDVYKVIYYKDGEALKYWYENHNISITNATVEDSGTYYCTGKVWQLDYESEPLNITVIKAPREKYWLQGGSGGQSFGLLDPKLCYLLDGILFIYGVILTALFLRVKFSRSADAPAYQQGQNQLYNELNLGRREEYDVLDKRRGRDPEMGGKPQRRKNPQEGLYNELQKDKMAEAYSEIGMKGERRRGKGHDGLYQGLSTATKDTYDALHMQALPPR", "test": "cell-based or functional assay", "data": [{"substance": "purified human IgE (Abcam) (from UniProt P01854 1-428) (antibody)", "values": [{"measurement": "suppression of CD69 up-regulation by U266 cells, free IgE at 1.7 µg/ml", "value": "> 2", "unit": "fold"}, {"measurement": "suppression of CD69 up-regulation by U266 cells, free IgE at 10 µg/ml", "value": "> 4", "unit": "fold"}]}]}
